Experimental data from publication PMC4351760.

Target: R276S/M395R GltPh mutant (Pyrococcus horikoshii) (UniProt O59010)
Experiment: crystal structure

- stoichiometry N: 3
Substance: R276S/M395R GltPh mutant (from UniProt O59010 1-417) (natural protein)
